Results from US7825091B2, “Modification of feeding behaviour” (Imperial Innovations Limited, priority 2003, dated 2010).

Assays:
[1] = ICV injection, food intake in 24-h fasted rats (studies 1a, 2a); assay type: in vivo, rat; conditions: ICV 3 nmol, vs saline
Description: (§1) Animals were handled daily after recovery from surgery until completion of the studies.
(§2) Animals had permanent stainless steel guide cannulas (Plastics One, Roanoke, Va.) stereotactically implanted ICV (intracerebraventricularly) or iPVN (into the hypothalamic paraventricular nucleus).

[2] = iPVN injection, food intake in 24-h fasted rats (studies 1b, 2b); assay type: in vivo, rat; conditions: iPVN 1 nmol, any time point
Protocol: as §1, §2
Therefore, exendin-4 was injected iPVN at a dose of 0.03 nmol.

B1: glicentin (peptide, UniProt P01275 21-89, looked up)
Glicentin: RSLQDTEEKSRSFSASQADPLSDPDQMNEDKRHSQGTFTSDYSKYLDSRRAQDFVQWLMNTKRNRNNIA
modifications: Glicentin
notes: proglucagon-derived peptide purchased from Peninsula Laboratories
- food intake (refeeding) after ICV injection [1]: failed to affect food intake at any time point
- food intake after iPVN injection [2]: failed to affect food intake at any time point
